Assay results published in the supplement of paper PMC10126150.
± gives the standard deviation of the averaged measurements.

What follows are sequences tested on ATP (assay: switch fluorescence ratio, 500 uM ATP over buffer (Cy3 cluster intensity, sum of 5 cycles each) (fold (ratio)); higher = stronger signal-on switching upon ATP binding; sequences stand for … in TCGTCGGCAGCGTCAGATGTGTATAAGAGACAGTTTTTTTTTTTTTTTTTTTTTTTTT…TC). Conditions: aptamer strand: ATP DNA aptamer (quencher-CACCTGGGGGAGTATTGCGGAGGAAGG + anchor), 100 nM annealed; ATP concentration: 500 uM.
Outline: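 Between each of five buffer/ATP cycles, the flow-cell was stripped with NaOH and re-annealed. Each cycle imaged Cy3-labelled switching-strand clusters, annealed to 100 nM quencher-labelled ATP aptamer on a modified Illumina MiSeq flow-cell, first in selection buffer and then after 15 min with 500 uM ATP at 22 °C. The fluorescence ratio is summed target-cycle over summed buffer-cycle Cy3 intensity per cluster, averaged per switch-domain sequence, with clusters outside 100-1000 RFU excluded.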
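Note: ATP exposure 15 min at 22 °C before imaging.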

Row | Sequence | switch fluorescence ratio
1 | TCAGGGGGGC | 1.28 ± 0.62
2 | TCAGGGTTAT | 1.02 ± 0.0034
3 | TCAGGGTTGT | 1.02 ± 0.031
4 | TCAGGGTTTC | 0.984 ± 0.013
5 | TCAGGTAATT | 1.03 ± 0.031
6 | TCAGGTGCGG | 1.16 ± 0.061
7 | TCAGGTTAGG | 1.008 ± 0.0065
8 | TCAGTAATGA | 1.0075 ± 7.1e-05
9 | TCAGTATAGC | 1.018 ± 0.004
10 | TCAGTCAACC | 1.1 ± 0.017
11 | TCAGTCAGTT | 0.991 ± 0.048
12 | TCAGTCATTA | 0.989 ± 0.016
13 | TCAGTCTGCC | 1.03 ± 0.052
14 | TCAGTCTTTT | 0.998 ± 0.016
15 | TCAGTGAACT | 1 ± 0.039
16 | TCAGTTGGGA | 0.9697 ± 0.0062
17 | TCAGTTTTTT | 0.999 ± 0.035
18 | TCATAAACTT | 1.09 ± 0.058
19 | TCATACGGTA | 1.179 ± 0.005
20 | TCATACTTTT | 1.01 ± 0.026
21 | TCATAGACGG | 0.987 ± 0.021
22 | TCATAGTATG | 0.982 ± 0.04
23 | TCATATAATA | 1.01 ± 0.018
24 | TCATCATTTT | 0.996 ± 0.0019
25 | TCATCCGTTT | 1.13 ± 0.15
26 | TCATCGTGCC | 0.99 ± 0.032

Row | Sequence | switch fluorescence ratio
27 | TCATGAGCCA | 1.04 ± 0.025
28 | TCATGCAACG | 1.06 ± 0.06
29 | TCATGCAGAT | 1.02 ± 0.056
30 | TCATGGCACG | 1.02 ± 0.019
31 | TCATGGGCGC | 1.01 ± 0.014
32 | TCATGGGGCG | 0.993 ± 0.012
33 | TCATGTACGT | 1.06 ± 0.028
34 | TCATGTTATG | 0.971 ± 0.065
35 | TCATGTTGCT | 1.01 ± 0.025
36 | TCATGTTGGA | 0.977 ± 0.02
37 | TCATTAAGTT | 1.08 ± 0.094
38 | TCATTAGCCT | 1.08 ± 0.019
39 | TCATTAGCTT | 0.991 ± 0.012
40 | TCATTCTTTA | 1.01 ± 0.019
41 | TCATTGATTT | 0.978 ± 0.022
42 | TCATTGGACT | 0.98 ± 0.023
43 | TCATTGTAAC | 1.06 ± 0.023
44 | TCATTGTTTT | 1.01 ± 0.019
45 | TCATTTATAT | 0.98 ± 0.047
46 | TCATTTCAGC | 1.03 ± 0.011
47 | TCATTTCAGG | 1.01 ± 0.012
48 | TCATTTGGAT | 1 ± 0.023
49 | TCATTTGGGG | 0.975 ± 0.024
50 | TCATTTTAGT | 0.99 ± 0.026
51 | TCATTTTCGG | 0.986 ± 0.025
52 | TCATTTTGAA | 1.01 ± 0.0012

Row | Sequence | switch fluorescence ratio
53 | TCCAAAATTT | 0.976 ± 0.013
54 | TCCAACGGGT | 1.03 ± 0.059
55 | TCCAAGACGA | 1.34 ± 0.23
56 | TCCAAGAGGG | 1.01 ± 0.031
57 | TCCAAGGCTT | 1.038 ± 0.0014
58 | TCCAATTTGA | 0.998 ± 0.012
59 | TCCACCGA | 1.04 ± 0.017
60 | TCCACGGTCT | 1.0273 ± 0.00046
61 | TCCAGATCAT | 0.993 ± 0.018
62 | TCCAGATGGA | 0.977 ± 0.037
63 | TCCAGATTCT | 0.9828 ± 0.0086
64 | TCCAGGAGGG | 1.025 ± 0.0075
65 | TCCAGGAGTG | 1.15 ± 0.019
66 | TCCAGGGAAT | 1.04 ± 0.029
67 | TCCAGGGGCA | 1.67 ± 0.1
68 | TCCAGTAATA | 1.17 ± 0.19
69 | TCCAGTAGTT | 0.982 ± 0.024
70 | TCCATAGGGG | 1.53 ± 0.88
71 | TCCATCGCTT | 1.6 ± 0.79
72 | TCCATCTGGG | 1.01 ± 0.032
73 | TCCATCTTTT | 0.999 ± 0.014
74 | TCCATGACCC | 1.01 ± 0.015
75 | TCCATGACGC | 1.099 ± 0.0088
76 | TCCATGATTG | 0.973 ± 0.037
77 | TCCATTCATA | 1.01 ± 0.023
78 | TCCATTTGGA | 1.02 ± 0.052

Row | Sequence | switch fluorescence ratio
79 | TCCCAACGGG | 1.011 ± 0.0036
80 | TCCCCAATTT | 1.13 ± 0.12
81 | TCCCCAGCAC | 3.1 ± 2.7
82 | TCCCCCTGTT | 1.01 ± 0.013
83 | TCCCCGGGCA | 0.995 ± 0.04
84 | TCCCCGGTCA | 1.09 ± 0.15
85 | TCCCCTCGGC | 1.08 ± 0.046
86 | TCCCCTTTTT | 1.04 ± 0.015
87 | TCCCGATTTC | 1.07 ± 0.024
88 | TCCCGCTTGT | 1.17 ± 0.028
89 | TCCCGTTTGA | 1.01 ± 0.016
90 | TCCCTCAGGG | 1.46 ± 0.078
91 | TCCCTGTTTT | 0.991 ± 0.016
92 | TCCGAAGGGT | 0.991 ± 0.045
93 | TCCGAAGGTA | 1.07 ± 0.025
94 | TCCGACGGTT | 3.31 ± 0.46
95 | TCCGATTTAT | 0.989 ± 0.026
96 | TCCGCGGGGA | 1.52 ± 0.59
97 | TCCGCGGGTT | 1.14 ± 0.2
98 | TCCGCTTGA | 1.58 ± 0.047
99 | TCCGGCGTGC | 1.13 ± 0.23
100 | TCCGGGGCAG | 1.262 ± 0.0072
101 | TCCGGGGGGG | 1.06 ± 0.094
102 | TCCGGGGGTG | 1.09 ± 0.13
103 | TCCGGTGTTT | 1.081 ± 0.0036
104 | TCCGGTTGTC | 1.11 ± 0.036

Row | Sequence | switch fluorescence ratio
105 | TCCGTCACTA | 1.438 ± 0.0074
106 | TCCTACTACG | 1.08 ± 0.026
107 | TCCTAGGCGT | 1.06 ± 0.12
108 | TCCTAGGGGT | 2.44 ± 1.2
109 | TCCTAGGTCT | 1.009 ± 0.0029
110 | TCCTAGTTGA | 1.024 ± 0.0012
111 | TCCTATACTA | 1.035 ± 0.0094
112 | TCCTATTGTG | 1.03 ± 0.042
113 | TCCTCGAGTA | 1.27 ± 0.027
114 | TCCTGAGTTA | 0.996 ± 0.011
115 | TCCTGCAGGA | 1.03 ± 0.014
116 | TCCTGCCTTA | 1.0991 ± 0.00051
117 | TCCTGCGGGG | 1.12 ± 0.12
118 | TCCTGGAGGA | 0.989 ± 0.05
119 | TCCTGGGCGG | 1.077 ± 0.0028
120 | TCCTGGGGGG | 1.04 ± 0.046
121 | TCCTGGGTGT | 2.23 ± 0.12
122 | TCCTTATTGG | 1 ± 0.0068
123 | TCCTTCAAAG | 1.08 ± 0.085
124 | TCCTTCGGCG | 1.3 ± 0.078
125 | TCCTTCTCTT | 1.05 ± 0.021
126 | TCCTTTAAGG | 1.025 ± 0.003
127 | TCCTTTAATC | 1.98 ± 1.4
128 | TCCTTTACTG | 0.9779 ± 0.0072
129 | TCCTTTAGCC | 1.23 ± 0.015
130 | TCCTTTGGTC | 0.987 ± 0.022

Row | Sequence | switch fluorescence ratio
131 | TCGAAAACAG | 0.961 ± 0.0078
132 | TCGAAAGTGT | 1 ± 0.025
133 | TCGAAATTCG | 1.02 ± 0.019
134 | TCGAACTGAT | 1.02 ± 0.03
135 | TCGAAGGATA | 0.992 ± 0.011
136 | TCGAAGGGGG | 1.1 ± 0.16
137 | TCGAATGGCT | 1 ± 0.044
138 | TCGAATGT | 1.01 ± 0.012
139 | TCGAATGTGC | 0.989 ± 0.022
140 | TCGACACTGA | 1.058 ± 0.0022
141 | TCGACCTAAT | 1.077 ± 0.01
142 | TCGACGATTC | 1.52 ± 0.14
143 | TCGACTCAGG | 1.05 ± 0.028
144 | TCGACTGAGG | 1.03 ± 0.031
145 | TCGACTGTTT | 1.03 ± 0.018
146 | TCGAGAATGT | 0.984 ± 0.014
147 | TCGAGAGGGA | 1 ± 0.047
148 | TCGAGATAGA | 1.1 ± 0.11
149 | TCGAGATTAG | 0.9942 ± 0.0086
150 | TCGAGCATCA | 1.143 ± 0.01
151 | TCGAGCTTGT | 1 ± 0.024
152 | TCGAGGAATC | 1.075 ± 0.0094
153 | TCGAGGGCGG | 0.98 ± 0.032
